Read-outs that look alike come from different tables or passages of the source. One block for each compound: values may come before it.
Assays:
integrin αvβ3 = target: T1, integrin αvβ3 (Homo sapiens, UniProt P05106+P06756); assay: competitive cell binding assay using ^125I-echistatin on U87MG cells; settings: for IC50: n=3, read-out: IC50 (inhibition of ^125I-echistatin binding to U87MG cells)
T1 construct: evaluated using U87MG cells (integrin αvβ3-positive); endogenous in cells; host or cells: U87MG human glioblastoma cells (ATCC)
Method: Experiments were performed on U87MG human glioblastoma cells with triplicate samples as previously reported.
In vitro integrin αvβ3-binding affinities and specificities of RGD4, PRGD4 and FPRGD4 were assessed via displacement cell binding assays using ^125I-echistatin as the integrin αvβ3-specific radioligand. Experiments were performed on U87MG human glioblastoma cells by the method previously described (J Nucl Med. 2005;46:1707-1718 J Nucl Med. 2006;47:1172-1180, which is incorporated herein by reference for the corresponding discussion). […] Experiments were performed with triplicate samples.
Experiments were performed with triplicate samples.
In vitro integrin-binding affinity and specificity of RGD multimers and DOTA-RGD multimers were assessed via competitive cell binding assays using ^125I-echistatin as the integrin αvβ3-specific radioligand (J Nucl Med. 2005;46:1707-1718, which is incorporated herein by reference for the corresponding discussion). […] Experiments were performed with triplicate samples.

U87MG cells = assay: cell adhesion assay on vitronectin coated plates; type: cell-based, human; settings: vitronectin coated plates; n=4; read-out: calculated IC50 (inhibition of U87MG cell adhesion)
Method: Ninety-six well plates were coated with 2 μg/mL of fibronectin or vitronectin (Sigma-Aldrich) in PBS at 4° C. overnight and treated with 2% bovine serum albumin (BSA) for 1 h at 37° C. U87MG cells (human glioblastoma, ATCC; 2×10^5 cells/mL) with various concentrations of RGD multimers (50 nM, 200 nM, 800 nM) in 100 μL serum-free Dulbecco's modified Eagle's medium (DMEM) containing 0.1% BSA were incubated for 20 min at 37° C. The resulting mixture was added to the plates and incubated for 1 h at 37° C. Plates treated with BSA only were used as negative control. After removal of the medium by aspiration, 0.04% crystal violet solution was added and incubated for 10 min at room temperature. The wells were washed three times with PBS and 20 μL Triton X-100 were added for permeabilization. Distilled water (80 μL) was then added and the number of adherent cells was assessed with a microplate reader (Tecan; measurement wavelength: 550 nm; reference wavelength: 630 nm).

[1] = biodistribution of ^3H-PTX and ^3H-RGD2−PTX in MDA-MB-435 tumor-bearing mice; type: in vivo, mouse; settings: female, athymic nude (nu/nu), mouse, iv, 2.9 umol/kg, total radioactivity
Method: (§1) All animal experiments were performed in compliance with the guidelines for the care and use of research animals established by the Stanford University's Animal Studies Committee. Female athymic nude mice (nu/nu) were obtained from Harlan (Indianapolis, Ind.) at 6-8 weeks of age and were kept under sterile conditions. The MDA-MB-435 cells were harvested and suspended in sterile PBS at a concentration of 5×10^7 cells/mL. Viable cells (5×10^6) in PBS (100 μL) were injected orthotopically in the right mammary fat pad. […] Tumor growth was followed by caliper measurements of perpendicular measures of the tumor. The tumor volume was estimated by the formula: tumor volume=a×(b^2)/2, where a and b are the tumor length and width respectively in mm.
(§2) The animals were euthanized at 4, 24 and 48 h post injection and major organs and tissues were collected correspondingly. Approximately 100 mg of the tissue was added to glass scintillation vials containing 1 mL of tissue solubilizer SoluEne®-350 (Perkin-Elmer, Waltham, Mass.). These samples were digested at 55° C. for overnight followed by bleaching to obtain the decolorized samples. Chemiluminescence was reduced by the addition of glacial acetic acid. Hionic-Fluor liquid scintillation cocktail (Perkin-Elmer) was added to all samples, which were then counted with a Tri-Carb 2800TR liquid scintillation Analyzer (Perkin-Elmer).

[2] = system: MDA-MB-435 tumor-bearing mice; assay: as above; type: in vivo, mouse
Method: as §1, §2

[3] = tumor/kidney, read-out: tumor/kidney ratio
[4] = tumor/liver, read-out: tumor/liver ratio
[5] = tumor/muscle, read-out: tumor/muscle ratio

IC50 (integrin αvβ3; Example 2): 0.0377 ± 0.007 µM
Compound: N=C(N)NCCC[C@@H]1NC(=O)[C@H](CCCCNC(=O)CC[C@H](NC(=O)CC[C@H](NC(=O)COCCOCCOCCNC(=O)c2ccc(F)cc2)C(=O)N[C@@H](CCC(=O)NCCCC[C@@H]2NC(=O)[C@@H](Cc3ccc(O)cc3)NC(=O)[C@H](CC(=O)O)NC(=O)CNC(=O)[C@H](CCCNC(=N)N)NC2=O)C(=O)NCCCC[C@@H]2NC(=O)[C@@H](Cc3ccc(O)cc3)NC(=O)[C@H](CC(=O)O)NC(=O)CNC(=O)[C@H](CCCNC(=N)N)NC2=O)C(=O)NCCCC[C@@H]2NC(=O)[C@@H](Cc3ccc(O)cc3)NC(=O)[C@H](CC(=O)O)NC(=O)CNC(=O)[C@H](CCCNC(=N)N)NC2=O)NC(=O)[C@@H](Cc2ccc(O)cc2)NC(=O)[C@H](CC(=O)O)NC(=O)CNC1=O [FPRGD4, FB-NH-mini-PEG-CO-E{E[c(RGDyK)]2}2]

fold higher integrin αvβ3 affinity than NOTA-RGD1 (integrin αvβ3; Example 5): 13 fold
fold increase of integrin avidity compared to NOTA-RGD2 (integrin αvβ3; Example 5): 3 fold
IC50 (integrin αvβ3; Example 5): 0.0161 ± 0.0031 µM
Compound: N=C(N)NCCC[C@@H]1NC(=O)[C@H](CCCCNC(=O)CC[C@H](NC(=O)CC[C@H](NC(=S)Nc2ccc(C[C@H]3CN(CC(=O)O)CCN(CC(=O)O)CCN3CC(=O)O)cc2)C(=O)N[C@@H](CCC(=O)NCCCC[C@@H]2NC(=O)[C@@H](Cc3ccc(O)cc3)NC(=O)[C@H](CC(=O)O)NC(=O)CNC(=O)[C@H](CCCNC(=N)N)NC2=O)C(=O)NCCCC[C@@H]2NC(=O)[C@@H](Cc3ccc(O)cc3)NC(=O)[C@H](CC(=O)O)NC(=O)CNC(=O)[C@H](CCCNC(=N)N)NC2=O)C(=O)NCCCC[C@@H]2NC(=O)[C@@H](Cc3ccc(O)cc3)NC(=O)[C@H](CC(=O)O)NC(=O)CNC(=O)[C@H](CCCNC(=N)N)NC2=O)NC(=O)[C@@H](Cc2ccc(O)cc2)NC(=O)[C@H](CC(=O)O)NC(=O)CNC1=O [NOTA-RGD4, NOTA-E{E[c(RGDyK)]2}2]

IC50 (integrin αvβ3; Example 2): 0.0465 ± 0.0053 µM
Compound: N=C(N)NCCC[C@@H]1NC(=O)[C@H](CCCCNC(=O)CC[C@H](NC(=O)CC[C@H](NC(=O)COCCOCCOCCN)C(=O)N[C@@H](CCC(=O)NCCCC[C@@H]2NC(=O)[C@@H](Cc3ccc(O)cc3)NC(=O)[C@H](CC(=O)O)NC(=O)CNC(=O)[C@H](CCCNC(=N)N)NC2=O)C(=O)NCCCC[C@@H]2NC(=O)[C@@H](Cc3ccc(O)cc3)NC(=O)[C@H](CC(=O)O)NC(=O)CNC(=O)[C@H](CCCNC(=N)N)NC2=O)C(=O)NCCCC[C@@H]2NC(=O)[C@@H](Cc3ccc(O)cc3)NC(=O)[C@H](CC(=O)O)NC(=O)CNC(=O)[C@H](CCCNC(=N)N)NC2=O)NC(=O)[C@@H](Cc2ccc(O)cc2)NC(=O)[C@H](CC(=O)O)NC(=O)CNC1=O [PRGD4, NH2-mini-PEG-CO-E{E[c(RGDyK)]2}2]

Compound: N=C(N)NCCC[C@@H]1NC(=O)[C@H](CCCCNC(=O)CC[C@H](N)C(=O)NCCCC[C@@H]2NC(=O)[C@@H](Cc3ccc(O)cc3)NC(=O)[C@H](CC(=O)O)NC(=O)CNC(=O)[C@H](CCCNC(=N)N)NC2=O)NC(=O)[C@@H](Cc2ccc(O)cc2)NC(=O)[C@H](CC(=O)O)NC(=O)CNC1=O [RGD2, E[c(RGDyK)]2, reference compound]
IC50 (U87MG cells): 0.7 µM

Compound: CC(=O)O[C@H]1C(=O)[C@@]2(C)[C@H]([C@H](OC(=O)c3ccccc3)[C@]3(O)C[C@H](OC(=O)[C@H](OC(=O)CCC(=O)N[C@@H](CCC(=O)NCCCC[C@@H]4NC(=O)[C@@H](Cc5ccc(O)cc5)NC(=O)[C@H](CC(=O)O)NC(=O)CNC(=O)[C@H](CCCNC(=N)N)NC4=O)C(=O)NCCCC[C@@H]4NC(=O)[C@@H](Cc5ccc(O)cc5)NC(=O)[C@H](CC(=O)O)NC(=O)CNC(=O)[C@H](CCCNC(=N)N)NC4=O)[C@@H](NC(=O)c4ccccc4)c4ccccc4)C(C)=C1C3(C)C)[C@]1(OC(C)=O)CO[C@@H]1C[C@@H]2O [^3H-RGD2−PTX]
tissue to tissue ratio at 4 h [1, 3]: 0.25
tissue to tissue ratio at 24 h [1, 3]: 0.68
tissue to tissue ratio at 48 h [1, 3]: 0.53
tissue to tissue ratio at 4 h [1, 4]: 0.29
tissue to tissue ratio at 24 h [1, 4]: 0.45
tissue to tissue ratio at 48 h [1, 4]: 0.27
tissue to tissue ratio at 4 h [1, 5]: 2.86
tissue to tissue ratio at 24 h [1, 5]: 2.82
tissue to tissue ratio at 48 h [1, 5]: 1.74
tissue concentration, Blood ([2]; 4 h): 101.7 ± 30.8 ng/g
tissue concentration, Heart ([2]; 4 h): 228.7 ± 29.8 ng/g
tissue concentration, Intestine ([2]; 4 h): 127.8 ± 20.3 ng/g
tissue concentration, Kidney ([2]; 4 h): 1421.6 ± 289.8 ng/g
tissue concentration, Liver ([2]; 4 h): 1252.9 ± 109.9 ng/g
tissue concentration, Lung ([2]; 4 h): 300.4 ± 30.9 ng/g
tissue concentration, MDA-MB-435 tumor ([2]; 4 h): 357.5 ± 62.62 ng/g
tissue concentration, Muscle ([2]; 4 h): 125.1 ± 24.0 ng/g
tissue concentration, Skin ([2]; 4 h): 144.1 ± 15.9 ng/g
tissue concentration, Spleen ([2]; 4 h): 322.3 ± 59.3 ng/g
tissue concentration, Stomach ([2]; 4 h): 119.0 ± 16.7 ng/g
tumor/muscle ratio ([2]; 4 h): 2.86
tissue concentration, Liver ([2]; 4 h, listed as 3H-RGD2-PTX): 1252.9 ± 109.9 ng/g
tissue concentration, MDA-MB-435 tumor ([2]; 4 h, listed as 3H-RGD2-PTX): 357.5 ± 62.6 ng/g
tissue concentration, Blood ([2]; 24 h): 143.1 ± 18.0 ng/g
tissue concentration, Heart ([2]; 24 h): 170.7 ± 18.6 ng/g
tissue concentration, Intestine ([2]; 24 h): 52.1 ± 7.5 ng/g
tissue concentration, Kidney ([2]; 24 h): 338.9 ± 22.1 ng/g
tissue concentration, Liver ([2]; 24 h): 510.4 ± 28.9 ng/g
tissue concentration, Lung ([2]; 24 h): 238.6 ± 75.6 ng/g
tissue concentration, MDA-MB-435 tumor ([2]; 24 h): 229.4 ± 50.4 ng/g
tissue concentration, Muscle ([2]; 24 h): 81.2 ± 11.4 ng/g
tissue concentration, Skin ([2]; 24 h): 87.2 ± 16.1 ng/g
tissue concentration, Spleen ([2]; 24 h): 228.7 ± 39.4 ng/g
tissue concentration, Stomach ([2]; 24 h): 71.63 ± 9.5 ng/g
tumor/muscle ratio ([2]; 24 h): 2.82
tissue concentration, MDA-MB-435 tumor ([2]; 24 h, listed as 3H-RGD2-PTX): 229.4 ± 50.4 ng/g
tissue concentration, Blood ([2]; 48 h): 225.4 ± 12.8 ng/g
tissue concentration, Heart ([2]; 48 h): 222.5 ± 16.2 ng/g
tissue concentration, Intestine ([2]; 48 h): 50.8 ± 9.5 ng/g
tissue concentration, Kidney ([2]; 48 h): 281.8 ± 32.6 ng/g
tissue concentration, Liver ([2]; 48 h): 545.3 ± 30.6 ng/g
tissue concentration, Lung ([2]; 48 h): 207.8 ± 48.2 ng/g
tissue concentration, MDA-MB-435 tumor ([2]; 48 h): 148.8 ± 40.2 ng/g
tissue concentration, Muscle ([2]; 48 h): 85.6 ± 28.0 ng/g
tissue concentration, Skin ([2]; 48 h): 66.0 ± 9.1 ng/g
tissue concentration, Spleen ([2]; 48 h): 227.9 ± 28.2 ng/g
tissue concentration, Stomach ([2]; 48 h): 71.7 ± 12.2 ng/g
tumor/muscle ratio ([2]; 48 h): 1.74
tissue concentration, MDA-MB-435 tumor ([2]; 48 h, listed as 3H-RGD2-PTX): 148.8 ± 40.2 ng/g

— US20080267882A1, “Imaging compounds, methods of making imaging compounds, methods of imaging, therapeutic compounds, methods of making therapeutic compounds, and methods of therapy” (Stanford University, priority 2007, published 2008)
